Measured values published in the supplement of paper PMC9170038.

System: K4 kissing-loop RNA reporter
Assay: apparent KD of K4 kissing-loop reporter; higher = weaker reporter binding
Settings: Eterna round: R107
Protocol: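 RNA-MaP round R107: designed RNA switches with theophylline, tryptophan, arginine or FMN aptamers are transcribed on-chip within common flanks. They are titrated with a labelled K4 kissing-loop RNA reporter in RNA-MaP buffer (100 mM Tris pH 7.5, 80 mM KCl, 4 mM MgCl2), without ligand or with the indicated ligand. Median apparent KD per design.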

[1] = input ligand: theophylline 20 uM
[2] = input ligand: tryptophan 2.4 mM
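Note: bound reporter read as fluorescence of individual clusters on recovered sequencing chips by microscopy, with normalized cluster intensities fitted with a binding model.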

| Sequence | apparent KD of K4 kissing-loop reporter (input ligand: FMN 200 uM) | apparent KD of K4 kissing-loop reporter (input ligand: arginine 13.2 mM) | apparent KD of K4 kissing-loop reporter (input ligand: none) | apparent KD of K4 kissing-loop reporter [1] | apparent KD of K4 kissing-loop reporter [2] |
| --- | --- | --- | --- | --- | --- |
| GAUUAAUAAGAGGAUACCAGUACUAAUAAAGUACAUUAAUAGUAGAGUGAUGUUCUAAAGUACCCUUGGCAGCUUAGAGUAAGUU [#08 K4 Theophylline B Exclusion] | 128 nM | 224 nM | 157 nM | 226 nM | 97.5 nM |
| GAUUACAACAGAGUGAUGUUCUGACUUUCUCGAGGACCGGUACGGCCGCCACUCGUUAAACAAAGUGGUUUGCCAAGGCCAACUU | 139 nM | 198 nM | 157 nM | 208 nM | 111 nM |
| GAUUCAGUGAUGUUGGAAGGCGAGCGGGAUACCAGCCGAGACUCAGGCCCUUGGCAGCCCACAUAUCCCAGGUAGAUAGUAGAUC [Same State - Theophylline A (Freestyle 8)] | 193 nM | 106 nM | 129 nM | 166 nM | 135 nM |
| GAUUCUAGCGAAAGUGAUGUUUUCGAGGAUACCAGUGCCACUUGACACCCUUGGCAGCCUACCCGUCAUCACAAGUGGCGUUAAA [theeternabot_exclusion_KL_Theo_A_28] | 136 nM | 114 nM | 129 nM | 138 nM | 118 nM |
| GAUUGGCGGACGGCCGCCACUCGGACGAGUCACAGUGAUGUUGUGGUUUGCCAGUCGACUUCAUCGAGGACCGGGUUUGUCGGGC [Exclusion Tryptophan B GF 21] | 592 nM | 407 nM | 497 nM | 405 nM | 349 nM |
| GAUUUAGAGGCGGCCGCCACUAGUGAUGUUAGUGAUGUUUGAUAGGGAAUAUAUCUGCGAGUAGAUAGGACCGGGCCAGAUGGAG [eccvbmullin] | 192 nM | 128 nM | 150 nM | 168 nM | 151 nM |
| GCAAACCUCAGUGAUGUUGAGAAAUCGGAAGGAGCGCGUGAAAACGCAGGUAGGUCGCCGACACAUGAAGUAUCUUCGUGUUUGC [Arginine A K4 22] | 276 nM | 272 nM | 316 nM | 328 nM | 243 nM |
| GCAACAUUGGUAGGAUAUCAUUCUGAGUGAUGUUCAGGGUUCAGCUAACGAAAGUUAGUUGUACCAUGAGAAGGGCUAAUGUUGC [Omei KL FMN B SS A v5] | 425 nM | 711 nM | 967 nM | 820 nM | 989 nM |
| GCAGACACGCAGUGAUGUUGCGAAACGGAAGGAGCGCGUGAAAACGCAGGUAGGUCGCCGACACAUAAAUUAUAAUUUUGUUUGC [Arginine A K4 14] | 253 nM | 214 nM | 246 nM | 237 nM | 205 nM |
| GCAGUGAUGUUGCGGAUGUACAGUGGCGUGCGAGGACCGGUACGGCCGCCACUCGUACAGAGCAAGCUAAUACAUCGAUAGGUGA [whbob_SS_Tryp_A_m4] | 436 nM | 223 nM | 207 nM | 382 nM | 240 nM |
| GCCAUCUACUAAGGAUAUUAAGUCAAUAUUUGUGGUGCCAUCUGUCGUUCAGGGCAGUGAUGUUGCUAAGAAGGUAGUCUGUCGG [theeternabot_exclusion_KL_FMN_B_39] | 757 nM | 441 nM | 636 nM | 593 nM | 407 nM |
| GCCCGGUGAAUCCGCCAAGAUAGACACCGUCGAGGACCGGUACGGCCGCCACUCGAGUACGAGUGAUGUUCGUACGCGGUGUCGA [Onedzate] | 606 nM | 728 nM | 657 nM | 431 nM | 189 nM |
| GCCGUACGCAUGGAUACCAGCUAGACCGAGUGAUGUUCAGGUCUGAAUGCCGGUAAUAAGAGCCCUUGGCAGCCAUGCGUACGGC | 361 nM | 262 nM | 358 nM | 335 nM | 307 nM |
| GCCGUAGAUGGAAGGAGCGUGGUCUAGAAGCACAAGUGAUGUUUGUGGUAACCUUCUGACCCACAGGUAGGUCGCCAUCUACGGC | 88.4 nM | 78.4 nM | 85.7 nM | 68.1 nM | 82.1 nM |
| GCCGUAGAUUGAAGGAGCGGGCCGUAGUGAUGUUACGCCAAGUUGUCUUUUAUUGAUGUGGCCCAGGUAGGUCGCAAUCUACGGC | 300 nM | 287 nM | 311 nM | 217 nM | 273 nM |
| GCCGUAGAUUGAAGGAGCGUUCUUACUGAUUACGGCAGCCGGAAGUGAUGUUUCCAGGUGGAACAGGUAGGUCGCAAUCUACGGC | 104 nM | 87.2 nM | 96 nM | 99.8 nM | 92 nM |
| GCCGUCCGGUCGCAAGACCGGACAGCCGAUACCAGCGCGAAGGCGCGCCCUUGGCAGCGGCACCGAGUGAUGUUCGGUCAGGCGG [#2 Same State - Theophylline A Attempt #2 (HarryS)] | 179 nM | 148 nM | 173 nM | 128 nM | 166 nM |
| GCCUAGCAGGGAAGGAGCGCCAGGAGAAGAAAUGGAGAGAGUUGAGUGAUGUUCAAAUGGUGGCAGGUAGGUCGCCCUGCUAGGC [KL-SSArg B12] | 388 nM | 298 nM | 583 nM | 761 nM | 274 nM |
| GCCUGGGCCCGAAGGAGCGCCGUGACAGGUUACUGCAUUGAGCAGUGAUGUUGCUCAAUCUGGCAGGUAGGUCGCGGGCCCAGGC | 120 nM | 100 nM | 102 nM | 108 nM | 93.1 nM |
| GCGAAAAGCAAAACGAGUGAUGUUCGAAAACGAGGACCGGUACGGCCGCCACUCGAAAACGUCUGCGUGGGAAACUAUGUAGAUG [SS Tryptophan A - 1] | 511 nM | 569 nM | 698 nM | 590 nM | 302 nM |
| GCGCGCGGCGGAGGAUAUAGCCGGUGAUCCGAGAAAGUGAGUGAUGUUUACGGAGUUGAGGAUAUGUUAGAAGGCCGCCGCGCGC [abcdefghijklmnopqrstuvwx] | 339 nM | 751 nM | 1000 nM | 792 nM | 789 nM |
| GCGCGGGUCAGUGAUGUUGACCCUCGGAGACGAGGACCGGUACGGCCGCCACUCGUCCGCGCAGCUGAGGCAAAAGCCUCGGCAA [Omei KL Tryp A SS B v5] | 155 nM | 142 nM | 140 nM | 131 nM | 103 nM |
